Laboratory results: PMC6197793, “Optimized Enzymatic Synthesis of Feruloyl Derivatives Catalyzed by Three Novel Feruloyl Esterases from Talaromyces wortmannii in Detergentless Microemulsions” (Computational and Structural Biotechnology Journal, 2018)

What was measured:
Test in all cases: transesterification rate, HPLC, Michaelis-Menten fit
Type in all cases: biochemical, Talaromyces wortmannii
[1] = substrate: C=COC(=O)/C=C/c1ccc(O)c(OC)c1; conditions: acyl donor, co-substrate 200 mM prenol, system II microemulsion, MOPS-NaOH pH 6.0, 40 °C, 8 h
Text: transesterification rate, HPLC, Michaelis-Menten fit on Fae7262

[2] = substrate: C=COC(=O)/C=C/c1ccc(O)c(OC)c1; conditions: acyl donor, co-substrate 200 mM prenol, detergentless microemulsion n-hexane: t-butanol: 100 mM MOPS-NaOH pH 6.0 (system II, 3.2% buffer), 40 °C, 8 h
Text: transesterification rate, HPLC, Michaelis-Menten fit on Fae125

[3] = substrate: C=COC(=O)/C=C/c1ccc(O)c(OC)c1; conditions: acyl donor, co-substrate 200 mM prenol, system I microemulsion (5.0% buffer), MOPS-NaOH pH 6.0, 40 °C, 8 h
Text: transesterification rate, HPLC, Michaelis-Menten fit on Fae68

B1: Fae7262 (Talaromyces wortmannii) (protein)
chain: ASLTQVNNFGDNPGSLQMYIYVPNTLASKPAVIVAMHPCGGSATEYYGMYDYHSPADQYGYILIYPSATRDYNCFDAYSSSSLTHNGGSDSLSIVNMVKYVISTYGADSSKVYMTGSSSGAIMTNVLAGAYPDVFAAGSAFSGMPYACLYGAGAADPIMSNQTCSQGQIQHTGQQWAAYVHNGYPGYTGRYPRLQMWHGTADNVISYADLGQEISQWTTVMGLSFTGNQTNTPLSGYTKMVYGDGSQFQAYSAAGVGHFVPTDVSVVLDWFGITSGTTTTTTSKTTSATTSTTSSAPSSTGGCTAAHWAQCGGIGYTGCTACVSPYTCQKSNDYYSQCL
notes: expressed in low-background C1 (Myceliophthora thermophila) strain; EC 3.1.1.73
- Km [1]: 26.2 ± 2.9 mM

B2: Fae125 (Talaromyces wortmannii) (protein)
chain: QQSLWGQCGGTGWTGPTQCVSGACCQVQNPYYSQCIQGNCSPASSTSSTKTTATSVSTTTSARPSGTSLSSGCGKTLSLHSGTYTTTVSGQQRQYTLTLPQNYSPNKAYQLIFGYHWLSGTMQDVVSGSYYGIQPLAGDNAIFVAPQGLNNGWGNTNGDDITFTDQMLSTLENALCIDQTQIYSMGWSYGGAMSYALACARPNVFRAVAVMSGANLSGCSPGTQPVAYYAQHGVSDSVLPFSLGEGIRDTFVKDNHCTPTNPPAPAAGSGTHIKTEYSGCDSGHPVWWVAFDGPHEPLATDAGTSSSWTPGQIWSFFSLFH
notes: expressed in low-background C1 (Myceliophthora thermophila) strain; CBM1 predicted at residues 4-30; EC 3.1.1.73
- Km [2]: 21.2 ± 7.4 mM

B3: Fae68 (Talaromyces wortmannii) (protein)
chain: LPETHLQARGQSTSASSQSFQAKCEAFSSKINGQKKNAFQNDITLHSVTYIPSGGNISMATIPSVCANNAISTASPVEFCRVSLNVTTSSTSQIYMEAWLPGNYTGRFLSTGNGGLGGCIQYSDMLYATQFGFATVGTNNGHFGDTGKYFLGNTEILEDFAYRALHTGVVIGKELAKLFYTQISSGYNKSYYLGCSTGGRQGWKSLEKFPDDFDGVVAGSPAFNFINLSNWGARFLGITGDNTSDTFVTATQWGNLIHDEIIRQCDALDGAVDGIIEDPDLCHPVFETLICNSSSTASSSCLTGVQANTVNQVFTPLIGEDGKWLYPRMQPGSEVLAAYIYYSGQPFQYSTDWFRYVVYNNSAWDPTTWTLADAAAADRQDPFDISTWDSSLVSGFQKKGGKVLHYHGMEDPIITSDSSKAWYKYLADSTNTSPSELDEFYRFFAISGMGHCSPGSGASYIGQGVGTYVPGSEQHPEDNVLMAMVQWVEEGIAPEFVRGAKVASNGSVEYTRKHCKFPKRNVYVGPGNYTDENAWECV
notes: as for B1
- Km [3]: 16.3 ± 3.7 mM
